# Test results reported in patent publication US12180473B2, “Chimeric RNA-driven genomic rearrangement in mammalian cells” (priority 2018, dated 2024).
# “Also recorded” adds a separate entry of the source.
# Tests used:
# TMPRSS2-ERG fusion [1] = assay type: cell-based, human
# Method: (§1) DHT was added at the final concentration of 0.9 μM six hours post transfection. Following overnight incubation, cells were then treated with 4 μg/ml α-amanitin for various time periods (0, 2, 6, 12 and 24 hours). Cells were then revived in fresh medium containing 0.9 μM DHT without α-amanitin and RT-PCR was performed for either TMPRSS2-ERG or TMPRSS2-ETV1 fusion.
# TMPRSS2-ETV1 fusion [2] = assay type: cell-based, human
# Method: as §1
# BCR-KCNQ2 fusion = assay: Nested RT-PCR of induced BCR-KCNQ2 fusion transcript in 293T cells; assay type: cell-based, human; conditions: for induction of BCR-KCNQ2 fusion: 293T, 3 days
# Text: FIGS. 42A-42E. BCR-KCNQ2 fusion induced in 293T cells by chimeric RNAs utilizing/excluding the SINE element for three-way junction formation. FIG. 42A. Examples of chimeric RNA design using Short Interspersed Nuclear Element (SINE) commonly present in the human genome. The designed chimeric RNA forge a three-way junction that could be formed between two SINEs in genomic DNA (in the stem) and chimeric RNA (perpendicular and below the stem). Genomic DNA stems formed by DNA repeats such as SINE/SINE repeats may constitute stems over 300 nts in length. Short lines in gray regions represent base pairings. SINEs are in crimson. FIG. 42B. […] This chimeric RNA has GC content of 52%. FIG. 42B discloses the BCR targeting sequence as SEQ ID NO: 245, the KCNQ2 targeting sequence as SEQ ID NO: 246, and the chimeric sequence as SEQ ID NO: 247. FIG. 42C. Examples of chimeric RNA design targeting DNA sequences of BCR and KCNQ2 genes in the genome which form genomic stems using regions outside of known DNA repeats such as Short Interspersed Nuclear Element (SINE). SINEs are commonly present in the human genome are shown in solid boxes. The DNA stem could range from 10 bp to >100 bp with some mismatches. FIG. 42D. […] This chimeric RNA target intron regions and has GC content of 60.4%. FIG. 42D discloses the BCR targeting sequence as SEQ ID NO: 248, the KCNQ2 targeting sequence as SEQ ID NO: 249, and the chimeric sequence as SEQ ID NO: 250. FIG. 42E. BCR-KCNQ2 fusion can be induced by chimeric RNAs that form 3-way junction with genomic stems using SINE repeats (Set1A) or outside of SINE repeats (Set1B). 293T cells were transfected with chimeric RNA expression plasmid for 3 days and then harvested for nested RT-PCR.
# TMPRSS2-ERG fusion [3] = assay: RT-PCR detection of induced endogenous TMPRSS2-ERG fusion transcript in LNCaP cells expressing input RNA; conditions: for induction of endogenous TMPRSS2-ERG fusion transcript (RT-PCR): LNCaP cells transfected with input RNA plasmid, DHT for 3 days
# TMPRSS2-ETV1 fusion [4] = assay: RT-PCR detection of induced TMPRSS2-ETV1 fusion transcript in LNCaP cells; assay type: cell-based, human; conditions: LNCaP, two-round nested PCR
# Method: • 1st Round: Top down PCR with TMPRSS2 ex-1 F1 and ETV1 ex-6 R1 • Denaturation 94° C., 30 sec • Annealing * , 45 sec • Extension 72° C., 60 sec
# The Denaturation, Annealing and Extension steps were performed 2 cycles. • 2 cycles at each temperature: 62° C., 61° C., 60° C. . . .
# Long Range PCR for Detecting Genomic DNA Fusion Junction
# TMPRSS2-ERG fusion [5] = test system: TMPRSS2-ERG fusion
# [6] = LNCaP, 4 μg/ml α-amanitin, 0.9 μM DHT
molecule,measurement,setting,value
"CC[C@H](C)[C@@H]1NC(=O)CNC(=O)[C@@H]2Cc3c([nH]c4cc(O)ccc34)[S+]([O-])C[C@@H](NC(=O)CNC1=O)C(=O)N[C@@H](CC(N)=O)C(=O)N1C[C@H](O)C[C@H]1C(=O)N[C@@H]([C@@H](C)[C@@H](O)CO)C(=O)N2 (stereo in doubt) [α-amanitin, reference compound]",effect of α-amanitin treatment on TMPRSS2-ERG induction by antisense input RNA,TMPRSS2-ERG fusion [1]; lane 1 vs. 5,reduced the induction by antisense input RNAs
same,effect of α-amanitin treatment on TMPRSS2-ETV1 induction by antisense input RNA,TMPRSS2-ETV1 fusion [2]; lane 11 vs. 15,reduced the induction by antisense input RNAs
"S1B 10-8: chimeric RNA, BCR-KCNQ2, GC content 60.4% (nucleic acid, listed as DNA, further chemistry not given here) CCAGGTGGAGCTGCCCATGCCTTCCCCGCAGGGCTGAGCCCACTCAGCCGTGAACCAAAGTCCACTAGTCCCATCAAAAGTGCTAACAGGAAGGGGGGATC",induction of BCR-KCNQ2 fusion,BCR-KCNQ2 fusion,induce BCR-KCNQ2 fusion in 293T cells
same,Cell line(s) identified,"BCR-KCNQ2 fusion; fusion gene partners BCR-KCNQ2, 293T",293T
"Antisense-B3: input RNA, SEQ ID NO: 17 (nucleic acid) antisense: TGTGCTCGCTTCGGCAGCACATATACTAACATTGGAACGATCCTGCAGTGGGGAGCATTTCCAGATGGAGAAACTGCAAGGAAAAGCATAGAAGTGGGGCCACCCCTCGTGAGCTGGGGAGGGCTCACCTGCCGCGCTCCAGGCGGCGCTCCCCGCCCCTCGCCCTCCGCCTCCG",induction of endogenous TMPRSS2-ERG fusion transcript (RT-PCR),TMPRSS2-ERG fusion [3],complete loss of induction
"Sense-2 Long: input RNA, SEQ ID NO: 3 (nucleic acid) sense: TGTGCTCGCTTCGGCAGCACATATACTAACATTGGAACGATCCTGCAGGAGTAGGCGCGAGCTAAGCAGGAGGCGGAGGCGGAGGCGGAGGGCGAGGGGCGGGGAGCGCCGCCTGGAGCGCGGCAGGAAGCCTTATCAGTTGTGAGTGAGGACCAGTCGTTGTTTGAGTGTGCCTACGGAACGCCACACCTGGCTAAGACAGAGATGACCGCGTCCTCCTCCAGCGACTATGGACAGACTTCCAAGATGAGCCCACGCGTCCCTCAGCAGGATTGGCTGTCTCAACCCCCAGCCAGGGTCACCATCAAAATGGAATGTAACCCTAGCCAGGTGAATGGCTCAAGGAACTCTCCTGATGAATGCAGTGTGGCCAAAGGCGGGAAGATGGTGGGCAGCCCAGACACCGTTGGGATGAACTACGGCAGCTACATGGAGGAGAAGCACATGCCACCCCCAAACATGACCACGAACGAGCGCAGAGTTATCGTGCCAGCAGATCCTACGCTATGGAGTACAGACCATGTGCGGCAGTGGCTGGAGTGGGCGGTGAAAGAATATGGCCTTCCAGACGTCAACATCTTGTTATTCCAGAACATCGATGGGAAGGAACTGTGCAAGATGACCAAGGACGACTTCCAGAGGCTCACCCCCAGCTACAACGCCGACATCCTTCTCTCACATCTCCACTACCTCAGAGAGACTCCTCTTCCACATTTGACTTCAGATGATGTTGATAAAGCCTTA",induction of endogenous TMPRSS2-ERG fusion transcript (RT-PCR),TMPRSS2-ERG fusion [3],failed to induce fusion transcripts
"Sense-5: input RNA, SEQ ID NO: 29 (nucleic acid) sense: TGTGCTCGCTTCGGCAGCACATATACTAACATTGGAACGATCCTGCAGGAGTAGGCGCGAGCTTCCATCTCTCACTCCTGTCTGGCGGAGGGCGAGGGGCGGGGAGCGCCGCCTGGAGCGCGGCAGGTGAGCGGCGGATTGGCTGTCTCAACCCCCAGCCAGGGTCACCATCAAAATGGAATGTAACCCTAGCCAGGTGAATGGCTCAAG",α-amanitin treatment time after which sense input RNA began to induce TMPRSS2-ERG,TMPRSS2-ERG fusion [1]; [6],12 h
same,induction of endogenous TMPRSS2-ERG fusion transcript (RT-PCR),TMPRSS2-ERG fusion [3],fails to induce TMPRSS2-ERG gene fusion
"Sense-TMPRSS2-ETV1-A1: input RNA, SEQ ID NO: 42 (nucleic acid) sense: TGTGCTCGCTTCGGCAGCACATATACTAACATTGGAACGATCCTGCAGCCAGTTGGTGGAAGAGAGTCCCCCGGGGTCCCCAAAGCTGGCTCCTAGTCTACTGAATCTAACTAAGACTTTAACTTGGAACGATTTACATAATGCGGCA",α-amanitin treatment time after which sense input RNA began to induce TMPRSS2-ETV1 fusion,TMPRSS2-ETV1 fusion [2]; [6],24 h
same,induction of TMPRSS2-ETV1 fusion transcript (RT-PCR),TMPRSS2-ETV1 fusion [4],failed to induce fusion transcript
"Antisense-2: input RNA, SEQ ID NO: 5 (nucleic acid) antisense: TGTGCTCGCTTCGGCAGCACATATACTAACATTGGAACGATCCTGCAGCTTGAGCCATTCACCTGGCTAGGGTTACATTCCATATTGATGGTGACCCTGGCTGGGGGTTGAGACAGCCAATCCTGCTGAGGGACGCGTGGGCTCATCTTGGAAGTCTGTCCATAGTCGCTGGAGGAGGACGCGGTCATCTCTGTCTTAGCCAGGTGTGGCGTTCCGTAGGCACACTCAAACAACGACTGGTCCTCACTCACAACTGATAAGGCTTCCTGCCGCGCTCCAGGCGGCGCTCCCCGCCCCTCGCCCTCCGCCTCCGCCTCCGCCTCCTGCTTAGCTCGCGCCTACTC",induction with U6 promoter compared to CMV promoter,TMPRSS2-ERG fusion [5],more pronounced
same,induction of endogenous TMPRSS2-ERG fusion transcript (RT-PCR),TMPRSS2-ERG fusion [3],induced a clear band of 721 bp; also recorded: capable of inducing the fusion transcript
same,Cell line(s) identified,"TMPRSS2-ERG fusion [3]; fusion gene partners TMPRSS2-ERG, LNCaP",LNCaP
"SEQ ID NO: 247: chimeric RNA utilizing the SINE element to induce BCR-KCNQ2 fusion, GC content 52% (S1A 200-1 or S1A 200-2) (nucleic acid, listed as DNA, further chemistry not given here) AGCAGGGGGGGCGGTGTCCACACATCCTCACTACGCTGATTTGCCATTTGACTTACACAGTGCAACTCATGTGTTACCAGCCTTCACTGTTCTGACAGCT",induction of BCR-KCNQ2 fusion,BCR-KCNQ2 fusion,induce BCR-KCNQ2 fusion
"Sense-2: input RNA, SEQ ID NO: 2 (nucleic acid) sense: TGTGCTCGCTTCGGCAGCACATATACTAACATTGGAACGATCCTGCAGGAGTAGGCGCGAGCTAAGCAGGAGGCGGAGGCGGAGGCGGAGGGCGAGGGGCGGGGAGCGCCGCCTGGAGCGCGGCAGGAAGCCTTATCAGTTGTGAGTGAGGACCAGTCGTTGTTTGAGTGTGCCTACGGAACGCCACACCTGGCTAAGACAGAGATGACCGCGTCCTCCTCCAGCGACTATGGACAGACTTCCAAGATGAGCCCACGCGTCCCTCAGCAGGATTGGCTGTCTCAACCCCCAGCCAGGGTCACCATCAAAATGGAATGTAACCCTAGCCAGGTGAATGGCTCAAG",induction of endogenous TMPRSS2-ERG fusion transcript (RT-PCR),TMPRSS2-ERG fusion [3],failed to induce fusion transcripts
"Antisense-C2: input RNA, SEQ ID NO: 19 (nucleic acid) antisense: TGTGCTCGCTTCGGCAGCACATATACTAACATTGGAACGATCCTGCAGTGAGCTCATGCTATTCCTATGACATAGATGAGCACTGGGTAGACCCCGTCCTGGTAACACTATTCATGCACTAACCAGCACTCCCAGTCCTCCTCCCCAAAGAGAAAAGGCGCACCGGTGCTCCCAG",induction of endogenous TMPRSS2-ERG fusion transcript (RT-PCR),TMPRSS2-ERG fusion [3],complete loss of induction
